Test results published in US20260242735A1 (UNIVERSIT T BASEL, published 2026).
One block for each binder: values may come before it.

How the values were obtained:
Experiment in all cases: alanine scan, flow cytometry;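 further: HEK293-T cells transiently expressing single-residue alanine mutants of CD33 (alanine swapped to serine), antibody binding read by fluorescence in duplicate, background-subtracted, expressed relative to wild-type CD33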
human CD33 C41A = human CD33 C41A (human, UniProt P20138 18-364)
human CD33 R202A = human CD33 R202A (human, UniProt P20138 18-364)
human CD33 P203A = human CD33 P203A (human, UniProt P20138 18-364)
human CD33 Q204A = human CD33 Q204A (human, UniProt P20138 18-364)
Sequence of human CD33 Q204A (P20138 18-364 Q204A limits assumed): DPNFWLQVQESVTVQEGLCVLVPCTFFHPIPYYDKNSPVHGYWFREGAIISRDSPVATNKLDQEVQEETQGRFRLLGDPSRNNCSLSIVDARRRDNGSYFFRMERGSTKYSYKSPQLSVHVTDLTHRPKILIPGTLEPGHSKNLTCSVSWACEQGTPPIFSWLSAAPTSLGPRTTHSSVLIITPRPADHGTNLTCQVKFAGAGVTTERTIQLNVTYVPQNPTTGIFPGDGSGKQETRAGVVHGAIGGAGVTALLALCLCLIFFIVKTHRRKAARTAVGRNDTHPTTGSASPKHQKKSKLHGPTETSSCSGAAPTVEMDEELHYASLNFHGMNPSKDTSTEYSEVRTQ

human CD33 D205A = human CD33 D205A (human, UniProt P20138 18-364)
human CD33 H206A = human CD33 H206A (human, UniProt P20138 18-364)
human CD33 T208A = human CD33 T208A (human, UniProt P20138 18-364)
human CD33 T211A = human CD33 T211A (human, UniProt P20138 18-364)
human CD33 Q213A = human CD33 Q213A (human, UniProt P20138 18-364)
human CD33 F216A = human CD33 F216A (human, UniProt P20138 18-364)
human CD33 G218A = human CD33 G218A (human, UniProt P20138 18-364)
Sequence of human CD33 G218A (P20138 18-364 G218A limits assumed): as the sequence (P20138 18-364 Q204A limits assumed) above, with A187Q, G201A counted along it

human CD33 A219S = human CD33 A219S (human, UniProt P20138 18-364)
Sequence of human CD33 A219S (P20138 18-364 A219S limits assumed): as the sequence (P20138 18-364 Q204A limits assumed) above, with A187Q, A202S counted along it

human CD33 G220A = human CD33 G220A (human, UniProt P20138 18-364)
Sequence of human CD33 G220A (P20138 18-364 G220A limits assumed): as the sequence (P20138 18-364 Q204A limits assumed) above, with A187Q, G203A counted along it

human CD33 E224A = human CD33 E224A (human, UniProt P20138 18-364)
human CD33 R225A = human CD33 R225A (human, UniProt P20138 18-364)
human CD33 N230A = human CD33 N230A (human, UniProt P20138 18-364)
human CD33 V231A = human CD33 V231A (human, UniProt P20138 18-364)
Sequence of human CD33 V231A (P20138 18-364 V231A limits assumed): as the sequence (P20138 18-364 Q204A limits assumed) above, with A187Q, V214A counted along it

human CD33 V234A = human CD33 V234A (human, UniProt P20138 18-364)
Sequence of human CD33 V234A (P20138 18-364 V234A limits assumed): as the sequence (P20138 18-364 Q204A limits assumed) above, with A187Q, V217A counted along it

human CD33 P238A = human CD33 P238A (human, UniProt P20138 18-364)
Sequence of human CD33 P238A (P20138 18-364 P238A limits assumed): as the sequence (P20138 18-364 Q204A limits assumed) above, with A187Q, P221A counted along it

human CD33 G241A = human CD33 G241A (human, UniProt P20138 18-364)
Sequence of human CD33 G241A (P20138 18-364 G241A limits assumed): as the sequence (P20138 18-364 Q204A limits assumed) above, with A187Q, G224A counted along it

human CD33 I242A = human CD33 I242A (human, UniProt P20138 18-364)
human CD33 F243A = human CD33 F243A (human, UniProt P20138 18-364)
human CD33 P244A = human CD33 P244A (human, UniProt P20138 18-364)
human CD33 G245A = human CD33 G245A (human, UniProt P20138 18-364)
human CD33 D246A = human CD33 D246A (human, UniProt P20138 18-364)
human CD33 G247A = human CD33 G247A (human, UniProt P20138 18-364)
human CD33 S248A = human CD33 S248A (human, UniProt P20138 18-364)
human CD33 G249A = human CD33 G249A (human, UniProt P20138 18-364)
Sequence of human CD33 G249A (P20138 18-364 G249A limits assumed): as the sequence (P20138 18-364 Q204A limits assumed) above, with A187Q, G232A counted along it

human CD33 L197A = human CD33 L197A (human, UniProt P20138 18-364)
human CD33 Q251A = human CD33 Q251A (human, UniProt P20138 18-364)
human CD33 E252A = human CD33 E252A (human, UniProt P20138 18-364)
Sequence of human CD33 E252A (P20138 18-364 E252A limits assumed): as the sequence (P20138 18-364 Q204A limits assumed) above, with A187Q, E235A counted along it

human CD33 T253A = human CD33 T253A (human, UniProt P20138 18-364)
human CD33 R254A = human CD33 R254A (human, UniProt P20138 18-364)
human CD33 G256A = human CD33 G256A (human, UniProt P20138 18-364)
Sequence of human CD33 G256A (P20138 18-364 G256A limits assumed): as the sequence (P20138 18-364 Q204A limits assumed) above, with A187Q, G239A counted along it

human CD33 V257A = human CD33 V257A (human, UniProt P20138 18-364)
Sequence of human CD33 V257A (P20138 18-364 V257A limits assumed): as the sequence (P20138 18-364 Q204A limits assumed) above, with A187Q, V240A counted along it

human CD33 G260A = human CD33 G260A (human, UniProt P20138 18-364)
human CD33 A261S = human CD33 A261S (human, UniProt P20138 18-364)
human CD33 G266A = human CD33 G266A (human, UniProt P20138 18-364)
human CD33 T268A = human CD33 T268A (human, UniProt P20138 18-364)
Sequence of human CD33 T268A (P20138 18-364 T268A limits assumed): as the sequence (P20138 18-364 Q204A limits assumed) above, with A187Q, T251A counted along it

human CD33 A269S = human CD33 A269S (human, UniProt P20138 18-364)
Sequence of human CD33 A269S (P20138 18-364 A269S limits assumed): as the sequence (P20138 18-364 Q204A limits assumed) above, with A187Q, A252S counted along it

human CD33 T200A = human CD33 T200A (human, UniProt P20138 18-364)

B1: Refmab #3 (antibody, V domains shown)
VH: QVQLVQSGAEVKKPGSSVKVSCKASGYTFTDYNMHWVRQAPGQGLEWIGYIYPYNGGTGYNQKFKSKATITADESTNTAYMELSSLRSEDTAVYYCARGRPAMDYWGQGTLVTVSS
VL: DIQMTQSPSSLSASVGDRVTITCRASESVDNYGISFMNWFQQKPGKAPKLLIYAASNQGSGVPSRFSGSGSGTDFTLTISSLQPDDFATYYCQQSKEVPWTFGQGTKVEIK
notes: Full-length format is human IgG1 Fc silent (PG-LALA); The alanine scan used IgG or Fab
Mean % WT Binding (human CD33 C41A): 30.7 % WT

B2: Refmab #4 (antibody, V domains shown)
VH: QVQLVQSGAEVKKPGESVKVSCKASGYTFTNYGMNWVKQAPGQGLEWMGWINTYTGEPTYADKFQGRVTMTTDTSTSTAYMEIRNLGGDDTAVYYCARWSWSDGYYVYFDYWGQGTSVTVSS
VL: DIVMTQSPDSLTVSLGERTTINCKSSQSVLDSSTNKNSLAWYQQKPGQPPKLLLSWASTRESGIPDRFSGSGSGTDFTLTIDSPQPEDSATYYCQQSAHFPITFGQGTRLEIK
notes: as for B1
Mean % WT Binding (human CD33 C41A): 9.8 % WT

Continued, values first:

Mean % WT Binding (human CD33 R202A): 92.2 % WT binding
Mean % WT Binding (human CD33 P203A): 103 % WT binding
Mean % WT Binding (human CD33 Q204A): 108 % WT binding
Mean % WT Binding (human CD33 D205A): 3.1 % WT binding
Mean % WT Binding (human CD33 H206A): 98.3 % WT binding
Mean % WT Binding (human CD33 T208A): 116 % WT binding
Mean % WT Binding (human CD33 T211A): 92.2 % WT binding
Mean % WT Binding (human CD33 Q213A): 98 % WT binding
Mean % WT Binding (human CD33 F216A): 82.5 % WT binding
Mean % WT Binding (human CD33 G218A): 98 % WT binding
Mean % WT Binding (human CD33 A219S): 92 % WT binding
Mean % WT Binding (human CD33 G220A): 99.8 % WT binding
Mean % WT Binding (human CD33 E224A): 106 % WT binding
Mean % WT Binding (human CD33 R225A): 104 % WT binding
Mean % WT Binding (human CD33 N230A): 83.8 % WT binding
Mean % WT Binding (human CD33 V231A): 92.8 % WT binding
Mean % WT Binding (human CD33 V234A): 109 % WT binding
Mean % WT Binding (human CD33 P238A): 114 % WT binding
Mean % WT Binding (human CD33 G241A): 101 % WT binding
Mean % WT Binding (human CD33 I242A): 99 % WT binding
Mean % WT Binding (human CD33 F243A): 98.2 % WT binding
Mean % WT Binding (human CD33 P244A): 101 % WT binding
Mean % WT Binding (human CD33 G245A): 91.8 % WT binding
Mean % WT Binding (human CD33 D246A): 106 % WT binding
Mean % WT Binding (human CD33 G247A): 105 % WT binding
Mean % WT Binding (human CD33 S248A): 94.4 % WT binding
Mean % WT Binding (human CD33 G249A): 96.6 % WT binding
Mean % WT Binding (human CD33 L197A): 103 % WT binding
Mean % WT Binding (human CD33 Q251A): 126 % WT binding
Mean % WT Binding (human CD33 E252A): 108 % WT binding
Mean % WT Binding (human CD33 T253A): 96.8 % WT binding
Mean % WT Binding (human CD33 R254A): 95.7 % WT binding
Mean % WT Binding (human CD33 G256A): 108 % WT binding
Mean % WT Binding (human CD33 V257A): 98.1 % WT binding
Mean % WT Binding (human CD33 G260A): 97.2 % WT binding
Mean % WT Binding (human CD33 A261S): 56.7 % WT binding
Mean % WT Binding (human CD33 G266A): 82.6 % WT binding
Mean % WT Binding (human CD33 T268A): 100 % WT binding
Mean % WT Binding (human CD33 A269S): 93.9 % WT binding
Mean % WT Binding (human CD33 T200A): 110 % WT binding
B3: Refmab #6 (antibody, V domains shown)
VH: QVQLQQPGAEVVKPGASVKMSCKASGYTFTSYYIHWIKQTPGQGLEWVGVIYPGNDDISYNQKFQGKATLTADKSSTTAYMQLSSLTSEDSAVYYCAREVRLRYFDVWGQGTTVTVSS
VL: EIVLTQSPGSLAVSPGERVTMSCKSSQSVFFSSSQKNYLAWYQQIPGQSPRLLIYWASTRESGVPDRFTGSGSGTDFTLTISSVQPEDLAIYYCHQYLSSRTFGQGTKLEIK
notes: Full-length format is human IgG1 Fc silent (PG-LALA); also made as Fab; The alanine scan used IgG or Fab

Mean % WT Binding (human CD33 R202A): 123 % WT binding
Mean % WT Binding (human CD33 P203A): 105 % WT binding
Mean % WT Binding (human CD33 Q204A): 103 % WT binding
Mean % WT Binding (human CD33 D205A): 12.3 % WT binding
Mean % WT Binding (human CD33 H206A): 108 % WT binding
Mean % WT Binding (human CD33 T208A): 100 % WT binding
Mean % WT Binding (human CD33 T211A): 80.4 % WT binding
Mean % WT Binding (human CD33 Q213A): 128 % WT binding
Mean % WT Binding (human CD33 F216A): 104 % WT binding
Mean % WT Binding (human CD33 G218A): 102 % WT binding
Mean % WT Binding (human CD33 A219S): 93.7 % WT binding
Mean % WT Binding (human CD33 G220A): 93.5 % WT binding
Mean % WT Binding (human CD33 E224A): 97.1 % WT binding
Mean % WT Binding (human CD33 R225A): 124 % WT binding
Mean % WT Binding (human CD33 N230A): 105 % WT binding
Mean % WT Binding (human CD33 V231A): 88.2 % WT binding
Mean % WT Binding (human CD33 V234A): 115 % WT binding
Mean % WT Binding (human CD33 P238A): 157 % WT binding
Mean % WT Binding (human CD33 G241A): 109 % WT binding
Mean % WT Binding (human CD33 I242A): 81.8 % WT binding
Mean % WT Binding (human CD33 F243A): 103 % WT binding
Mean % WT Binding (human CD33 P244A): 107 % WT binding
Mean % WT Binding (human CD33 G245A): 110 % WT binding
Mean % WT Binding (human CD33 D246A): 115 % WT binding
Mean % WT Binding (human CD33 G247A): 85.6 % WT binding
Mean % WT Binding (human CD33 S248A): 105 % WT binding
Mean % WT Binding (human CD33 G249A): 105 % WT binding
Mean % WT Binding (human CD33 L197A): 102 % WT binding
Mean % WT Binding (human CD33 Q251A): 94.7 % WT binding
Mean % WT Binding (human CD33 E252A): 114 % WT binding
Mean % WT Binding (human CD33 T253A): 94.6 % WT binding
Mean % WT Binding (human CD33 R254A): 94.7 % WT binding
Mean % WT Binding (human CD33 G256A): 87.6 % WT binding
Mean % WT Binding (human CD33 V257A): 134 % WT binding
Mean % WT Binding (human CD33 G260A): 102 % WT binding
Mean % WT Binding (human CD33 A261S): 79.8 % WT binding
Mean % WT Binding (human CD33 G266A): 111 % WT binding
Mean % WT Binding (human CD33 T268A): 84.7 % WT binding
Mean % WT Binding (human CD33 A269S): 124 % WT binding
Mean % WT Binding (human CD33 T200A): 98.3 % WT binding
B4: Refmab #5 (antibody, V domains shown)
VH: QVQLVQSGAEVKKPGASVKVSCKASGYTFTNYDINWVRQAPGQGLEWIGWIYPGDGSTKYNEKFKAKATLTADTSTSTAYMELRSLRSDDTAVYYCASGYEDAMDYWGQGTTVTVSS
VL: DIQMTQSPSSLSASVGDRVTINCKASQDINSYLSWFQQKPGKAPKTLIYRANRLVDGVPSRFSGSGSGQDYTLTISSLQPEDFATYYCLQYDEFPLTFGGGTKVEIK
notes: as for B3
